Read-outs that look alike come from different tables or passages of the source. Where no end group is shown, it is not given here.
T1: human parathyroid hormone receptor 1 (hPTHR1) (human), Q03431
T1 chain: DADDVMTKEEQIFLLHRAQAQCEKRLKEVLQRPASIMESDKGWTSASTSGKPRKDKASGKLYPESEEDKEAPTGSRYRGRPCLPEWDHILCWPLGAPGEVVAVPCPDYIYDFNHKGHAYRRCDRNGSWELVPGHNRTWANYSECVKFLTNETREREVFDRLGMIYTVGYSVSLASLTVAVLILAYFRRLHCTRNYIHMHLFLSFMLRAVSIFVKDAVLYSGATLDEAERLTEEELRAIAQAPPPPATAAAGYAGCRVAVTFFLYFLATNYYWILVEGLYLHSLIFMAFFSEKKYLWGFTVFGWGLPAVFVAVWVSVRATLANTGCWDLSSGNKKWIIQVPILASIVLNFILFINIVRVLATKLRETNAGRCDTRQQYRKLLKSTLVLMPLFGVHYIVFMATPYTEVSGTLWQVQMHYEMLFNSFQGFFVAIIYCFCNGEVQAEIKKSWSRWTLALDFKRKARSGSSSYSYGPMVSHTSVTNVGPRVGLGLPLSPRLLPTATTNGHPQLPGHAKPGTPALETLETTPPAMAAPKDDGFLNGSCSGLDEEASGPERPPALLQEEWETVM


Experiments:
[1] = target: T1, human parathyroid hormone receptor 1 …; experiment: cell-based or functional assay
[2] = target: T1, human parathyroid hormone receptor 1 …; experiment: radioligand competition on GP-2.3 cells (hPTHR1), tracer 125I-PTH(1-34), n=4
[3] = target: T1, human parathyroid hormone receptor 1 …; experiment: radioligand competition on GP-2.3 cells (hPTHR1), tracer 125I-PTHrP(5-36), n=4
hPTHR1-H223R (human) [4] = target: hPTHR1-H223R (human) (UniProt Q03431); experiment: cell-based or functional assay
hPTHR1-H223R (human) [5] = target: hPTHR1-H223R (human) (UniProt Q03431); experiment: cell-based or functional assay; remark: listed apart in the source

| IC50 (nanomolar value of the pIC50), antagonism of PTH(1-34)-induced cAMP response, GP-2.3 cells [1] | IC50 (nanomolar value of the pIC50), antagonism of PTH(1-34)-induced cAMP response, SGS-72 cells [1] | IC50 (nanomolar value of the pIC50), antagonism of PTHrP(1-36)-induced cAMP response, SGS-72 cells [1] | IC50, antagonism of PTH(1-34) (0.3 nM)-induced cAMP response, SGS-72 cells [1] | pIC50, antagonism of PTH(1-34) (0.3 nM)-induced cAMP response, SGS-72 cells [1] | pIC50, antagonism of PTH(1-34)-induced cAMP response (GloSensor), GP-2.3 cells [1] | pIC50, antagonism of PTH(1-34)-induced cAMP response, SGS-72 cells [1] | pIC50, antagonism of PTHrP(1-36)-induced cAMP response, SGS-72 cells [1] | IC50 [2] | pIC50 [2] | IC50 [3] | pIC50 [3] | Binder | also measured |
| --- | --- | --- | --- | --- | --- | --- | --- | --- | --- | --- | --- | --- | --- |
| 377 nM | 5 nM | 5 nM | 14.5 nM | 7.84 -log M | 6.42 -log M | 8.31 -log M | 8.33 -log M | 28.6 nM | 7.54 -log M | 35.1 nM | 7.46 -log M | FMHNLWKHLSSMERVEWLRKKLQDVHNY (modifications not checked) [dW12, Y34-bPTH(7-34)-1894] | pIC50, inhibition of the cAMP signal induced by PTH(1-34) (0.3 nM), SGS-72 cells [1]: 7.2 -log M; pIC50, inhibition of the cAMP signal induced by PTH(1-34) (1 nM), GP-2.3 cells [1]: 6.4 -log M |
|  |  |  |  |  |  |  |  |  |  |  |  | IQLMHQRAKWIQDARRRAFLHKLIAEIHTAEI-NH2 [LA-PTH(5-36)-2012] | Reduction of basal cAMP, % vehicle; After ligand washout; GHR-10 cells (hPTHR1-H223R (human) [4]): -49 % vehicle; Reduction of basal cAMP, % vehicle; Ligand @ -6M; GHR-10 cells (hPTHR1-H223R (human) [4]): -15 % vehicle |
| 101 nM | 1 nM | 1 nM | 1.45 nM | 8.84 -log M | 7 -log M | 9.11 -log M | 9.1 -log M | 22.3 nM | 7.65 -log M | 17.7 nM | 7.75 -log M | IQLMHQRWKWIQDARRRAWLHKLIAEIHTAEI (modifications not checked) [dW12, W23-LA-PTH(5-36)-1949] | Reduction of basal cAMP, % vehicle; After ligand washout; GHR-10 cells (hPTHR1-H223R (human) [5]): 30 % vehicle; Reduction of basal cAMP, % vehicle; Ligand @ -6M; GHR-10 cells (hPTHR1-H223R (human) [5]): 41 % vehicle; IC50, antagonism of PTHrP(1-36) (0.3 nM)-induced cAMP response, SGS-72 cells [1]: 1.21 nM; pIC50, antagonism of PTHrP(1-36) (0.3 nM)-induced cAMP response, SGS-72 cells [1]: 8.92 -log M; washout assay: inhibition of the cAMP response to agonist applied after antagonist pre-treatment and rinsing [1]: > 90% |
